In patent US20030215852A1 (Pfizer, published 2003):

Biological target: T1, Pablo (pro-apoptotic Bcl-XL binding protein) (human, UniProt Q92558 1-559)
T1 sequence: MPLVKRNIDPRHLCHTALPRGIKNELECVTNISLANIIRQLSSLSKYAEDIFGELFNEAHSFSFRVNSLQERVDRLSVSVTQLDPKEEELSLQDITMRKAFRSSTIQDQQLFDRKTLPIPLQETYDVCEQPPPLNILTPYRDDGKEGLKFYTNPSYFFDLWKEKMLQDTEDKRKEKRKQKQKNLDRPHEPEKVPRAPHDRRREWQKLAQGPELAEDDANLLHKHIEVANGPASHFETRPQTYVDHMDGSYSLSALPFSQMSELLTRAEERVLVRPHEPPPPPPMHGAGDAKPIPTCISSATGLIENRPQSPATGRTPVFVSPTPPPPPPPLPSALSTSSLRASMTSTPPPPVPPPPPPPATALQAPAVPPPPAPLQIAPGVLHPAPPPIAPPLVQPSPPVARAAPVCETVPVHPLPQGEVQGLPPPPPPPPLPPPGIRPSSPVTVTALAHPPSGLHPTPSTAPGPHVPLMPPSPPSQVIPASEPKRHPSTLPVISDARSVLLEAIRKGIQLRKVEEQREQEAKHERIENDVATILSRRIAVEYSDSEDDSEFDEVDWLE
Assay: yeast two-hybrid assay

B1: pancortin 1 (other)
chain: MITNWMSQTLPSLVGLNTTKLSAAGGGTLDRSTGVLPTNPEESWQVYSSAQDSEGRCICTVVAPQQTMCSRDARTKQLRQLLEKVQNMSQSIEVLDRRTQRDLQYVEKMENQMKGLESKFKQVEESHKQHLARQFKAIKAKMDELRPLIPVLEEYKADAKLVLQFKEEVQNLTSVLNELQEEIGAYDYDELQSRVSNLEERLRACMQKLACGKLTGISDPVTVKTSGSRFGSWMTDPLAPEGDNRVWYMDGYHNNRFVREYKSMVDFMNTDNFTSHRLPHPWSGTGQVVYNGSIYFNKFQSHIIIRFDLKTETILKTRSLDYAGYNNMYHYAWGGHSDIDLMVDESGLWAVYATNQNAGNIVVSRLDPVSLQTLQTWNTSYPKRSAGEAFIICGTLYVTNGYSGGTKVHYAYQTNASTYEYIDIPFQNKYSHISMLDYNPKDRALYAWNNGHQILYNVTLFHVIRSDEL
notes: Tested in a yeast two-hybrid assay; also called BMZ
binding result: no binding
